Data from publication PMC12724015.

Target: peptide derived from subunit 5 of the pertussis toxin (PTX) (…) (Bordetella pertussis)

“Bordetella pertussis DsbA (BperDsbA), mature, oxidized (from UniProt Q7W0K2 28-209) (enzyme)” showed a fraction of reduced BperDsbA (AMS alkylation, SDS-PAGE, densitometry) after 5, 10 and 30 s of 50 uM oxidized BperDsbA with 50 uM PTX peptide of 90%.
